# B1: 3-isopropylmalate dehydrogenase, P50455 (parent)
# chain: MGFTVALIQGDGIGPEIVSKSKRILAKINELYSLPIEYIEVEAGDRALARYGEALPKDSLKIIDKADIILKGPVGESAADVVVKLRQIYDMYANIRPAKSIPGIDTKYGNVDILIVRENTEDLYKGFEHIVSDGVAVGMKIITRFASERIAKVGLNFALRRRKKVTCVHKANVMRITDGLFAEACRSVLKGKVEYSEMYVDAAAANLVRNPQMFDVIVTENVYGDILSDEASQIAGSLGIAPSANIGDKKALFEPVHGAAFDIAGKNIGNPTAFLLSVSMMYERMYELSNDDRYIKASRALENAIYLVYKERKALTPDVGGNATTDDLINEIYNKLG
# Variants of: B1
# Conditions: Sulfurisphaera tokodaii (strain DSM 16993 / JCM 10545 / NBRC 100140 / 7); pH 7; Thermal; CD; Potassium phosphate 20 mM; structure 1WPW; whole UniProt chain shown
Variant,Tm,"change of melting temperature, mutant - wild type (higher = more stable)"
K152R,95.6 °C,-0.4 °C
A259S F261P,97.1 °C,1.1 °C
Y282L,94.7 °C,-1.3 °C
K152R G154A,97.2 °C,1.2 °C
M91L I95L K152R G154A A259S F261P Y282L,96.4 °C,0.4 °C
M91L I95L,99.2 °C,3.2 °C
G154A,97.9 °C,1.9 °C

# — FireProtDB (doi:10.1093/oxfordjournals.jbchem.a002919)
